Reference: US20060259987A1 (UNIVERSITY OF UTAH RESEARCH FOUNDATION, published 2006)
Numbering of substitutions follows the chain as printed. Names and notes keep the numbering of the source. Values belong to the binder of their own block, whether it stands above or below them.

What was measured:
[1] = target: T1, human thrombin (human, UniProt P00734 328-622); assay: cell-based or functional assay
[2] = target: human factor Xa (human, UniProt P00742 41-179; P00742 235-488, limits assumed); assay: cell-based or functional assay
[3] = target: T2, human neutrophil elastase (human, UniProt P08246 30-247, limits assumed); assay: cell-based or functional assay
T2 sequence (looked up): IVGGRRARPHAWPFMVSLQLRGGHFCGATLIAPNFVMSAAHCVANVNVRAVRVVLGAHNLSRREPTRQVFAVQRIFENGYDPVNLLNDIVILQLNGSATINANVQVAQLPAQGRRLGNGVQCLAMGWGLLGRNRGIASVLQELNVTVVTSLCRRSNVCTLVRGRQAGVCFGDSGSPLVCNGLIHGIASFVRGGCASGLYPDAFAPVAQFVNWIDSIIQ

[4] = target: T3, human neutrophil cathepsin G (human, UniProt P08311 21-244); assay: cell-based or functional assay
T3 sequence (looked up): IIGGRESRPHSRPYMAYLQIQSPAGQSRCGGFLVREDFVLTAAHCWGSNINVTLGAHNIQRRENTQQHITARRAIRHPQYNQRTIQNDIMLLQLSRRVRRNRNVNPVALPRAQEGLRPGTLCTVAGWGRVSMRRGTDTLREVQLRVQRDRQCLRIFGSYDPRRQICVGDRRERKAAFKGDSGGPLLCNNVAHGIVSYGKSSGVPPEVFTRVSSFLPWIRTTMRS

[5] = target: T1, human thrombin; assay: thrombin inhibition rate in the absence of heparin
[6] = target: T1, human thrombin; assay: thrombin inhibition rate in the presence of heparin (HAH)
[7] = target: T4, thrombin (human, UniProt P00734 328-622); assay: cell-based or functional assay
[8] = target: T5, factor Xa (human, UniProt P00742 41-179; P00742 235-488, limits assumed); assay: cell-based or functional assay
[9] = target: T5, factor Xa; assay: heparin cofactor assay, HCA expt #2; ATIII titrated on 10 nM fXa + 50 ug/ml UFH, chromogenic readout
Method: (§1) After 3 minutes, the reactions were quenched with polybrene and chromogenic substrate S2238 (thrombin) or S2765 (fXa), and the initial rate of chromophore production (405 nm) recorded to obtain a measurement residual, uninhibited thrombin or factor Xa. IC50s were determined from plots of ATIII concentration vs. percent residual target enzyme activity.

[10] = target: T4, thrombin; assay: heparin cofactor assay, HCA expt #2; ATIII titrated on 10 nM thrombin + 50 ug/ml UFH, chromogenic readout
Method: as §1

T5 sequence (P00742 41-179 limits assumed, form in doubt, chain 1 of 2): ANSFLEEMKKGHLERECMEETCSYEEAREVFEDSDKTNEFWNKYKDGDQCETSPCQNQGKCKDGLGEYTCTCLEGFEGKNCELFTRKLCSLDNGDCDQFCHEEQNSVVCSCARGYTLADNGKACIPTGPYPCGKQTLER
T5 sequence (P00742 235-488 limits assumed, form in doubt, chain 2 of 2): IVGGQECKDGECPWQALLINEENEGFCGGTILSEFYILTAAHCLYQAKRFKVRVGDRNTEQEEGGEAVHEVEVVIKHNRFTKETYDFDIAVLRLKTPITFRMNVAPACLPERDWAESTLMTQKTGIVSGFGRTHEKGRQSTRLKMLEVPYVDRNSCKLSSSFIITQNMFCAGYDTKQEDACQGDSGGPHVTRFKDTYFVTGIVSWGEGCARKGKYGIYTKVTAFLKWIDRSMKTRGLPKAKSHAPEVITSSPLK
Chain of human factor Xa (P00742 41-179 limits assumed, chain 1 of 2): as the sequence (P00742 41-179 limits assumed, form in doubt, chain 1 of 2) above
Chain of human factor Xa (P00742 235-488 limits assumed, chain 2 of 2): as the sequence (P00742 235-488 limits assumed, form in doubt, chain 2 of 2) above

IC50 IIa/UFH (HCA #5) [1]: 16 nM
IC50 IIa/UFH (HCA #6) [1]: 18 nM
rsd IIa, no add (CA #51, stg 1 conc 200) [1]: 1%
IC50 fXa/UFH (HCA #5) [2]: 12 nM
IC50 fXa/UFH (HCA #6) [2]: 19 nM
rsd Xa, no add (CA #51, stg 1 conc 200) [2]: 1%
rsd IIa, HNE (CA #51, stg 1 conc 200) [3]: 1%
rsd Xa, HNE (CA #51, stg 1 conc 200) [3]: 1%
rsd IIa, catG (CA #51, stg 1 conc 200) [4]: 2%
rsd Xa, catG (CA #51, stg 1 conc 200) [4]: -1%
Kapp, thrombin progressive [5]: 3000 M⁻¹ s⁻¹
Kapp, thrombin HAH [6]: 1.1e+07 M⁻¹ s⁻¹
B1: LEAQ.502 (other)
chain: SPVDICTAKPRDIPMNPMCIYRSPEKKATEDEGSEQKIPEATNRRVWELSKANSRFATTFYQHLADSKNDNDNIFLSPLSISTAFAMTKLGACNDTLQQLMEVFKFDTISEKTSDQIHFFFAKLNCRLYRKANKASKLVSANRLFGDKSLTFNETYQDISELVYGAKLQPLDFKENAEQSRAAINKWVSNKTEGRITDVIPSEAINELTVLVLVNTIYFKGLWKSKFSPENTRKELFYKADGESCSASMMYQEGKFRYRRVAEGTQVLELPFKGDDITMVLILPKPEKSLAKVEKELTPEVLQEWLDELEEMMLVVHMPRFRIEDGFSLKEQLQDMGLVDLFSPEKSKLPGIVAEGRDDLYVSDAFHKAFLEVNEEGSEAAASTALSAQGRSLNPNRVTFKANRPFLVFIREVPLNTIIFMGRVANPCVK
notes: also called DES.LEAQ.502

IC50 IIa/UFH (HCA #6) [1]: 50 nM
rsd IIa, no add (CA #52, stg 1 conc 200) [1]: 4%
IC50 fXa/UFH (HCA #6) [2]: 27 nM
rsd Xa, no add (CA #52, stg 1 conc 200) [2]: 3%
rsd IIa, HNE (CA #52, stg 1 conc 200) [3]: 3%
rsd Xa, HNE (CA #52, stg 1 conc 200) [3]: 2%
rsd IIa, catG (CA #52, stg 1 conc 200) [4]: 2%
rsd Xa, catG (CA #52, stg 1 conc 200) [4]: 1%
B2: LEAQ.518 (other)
chain: B1 chain with A385T, S387E

IC50 IIa/UFH (HCA #5) [1]: 150 nM
IC50 IIa/UFH (HCA #6) [1]: 130 nM
rsd IIa, no add (CA #51, stg 1 conc 200) [1]: 2%
rsd IIa, no add (CA #52, stg 1 conc 200) [1]: 5%
IC50 fXa/UFH (HCA #5) [2]: 30 nM
IC50 fXa/UFH (HCA #6) [2]: 40 nM
rsd Xa, no add (CA #51, stg 1 conc 200) [2]: -1%
rsd Xa, no add (CA #52, stg 1 conc 200) [2]: 2%
rsd IIa, HNE (CA #51, stg 1 conc 200) [3]: 54%
rsd IIa, HNE (CA #52, stg 1 conc 200) [3]: 84%
rsd Xa, HNE (CA #51, stg 1 conc 200) [3]: -3%
rsd Xa, HNE (CA #52, stg 1 conc 200) [3]: 92%
rsd IIa, catG (CA #51, stg 1 conc 200) [4]: 1%
rsd IIa, catG (CA #52, stg 1 conc 200) [4]: 5%
rsd Xa, catG (CA #51, stg 1 conc 200) [4]: -2%
rsd Xa, catG (CA #52, stg 1 conc 200) [4]: 1%
B4: 13C.511 (other)
chain: B1 chain with S387E, A388I, Q389A

IC50 IIa/UFH (HCA #6) [1]: 65 nM
rsd IIa, no add (CA #52, stg 1 conc 200) [1]: 4%
IC50 fXa/UFH (HCA #6) [2]: 27 nM
rsd Xa, no add (CA #52, stg 1 conc 200) [2]: 2%
rsd IIa, HNE (CA #52, stg 1 conc 200) [3]: 3%
rsd Xa, HNE (CA #52, stg 1 conc 200) [3]: 2%
rsd IIa, catG (CA #52, stg 1 conc 200) [4]: 2%
rsd Xa, catG (CA #52, stg 1 conc 200) [4]: 1%
B5: LEAQ.517 (other)
chain: B1 chain with A385S, S387E

The remaining lines, values behind:

B3: 13C.432 (other)
chain: B1 chain with A385E, S387E, A388I, Q389A
notes: Made in Drosophila S2 cells (DES) on the S137A background; N-terminus printed as SPVDI---
rsd. IIa catG; CA expt #7; stg1 conc 200 [7]: 5 % of activity without ATIII
rsd. IIa catG; CA expt #8; stg1 conc 200 [7]: 8 % of activity without ATIII
rsd. IIa hne; CA expt #7; stg1 conc 200 [7]: 3 % of activity without ATIII
rsd. IIa hne; CA expt #8; stg1 conc 200 [7]: 16 % of activity without ATIII
rsd. IIa no add; CA expt #7; stg1 conc 200 [7]: 5 % of activity without ATIII
rsd. IIa no add; CA expt #8; stg1 conc 200 [7]: 5 % of activity without ATIII
rsd. Xa catG; CA expt #7; stg1 conc 200 [8]: 3 % of activity without ATIII
rsd. Xa catG; CA expt #8; stg1 conc 200 [8]: 1 % of activity without ATIII
rsd. Xa hne; CA expt #7; stg1 conc 200 [8]: 2 % of activity without ATIII
rsd. Xa hne; CA expt #8; stg1 conc 200 [8]: 1 % of activity without ATIII
rsd. Xa no add; CA expt #7; stg1 conc 200 [8]: 4 % of activity without ATIII
rsd. Xa no add; CA expt #8; stg1 conc 200 [8]: 1 % of activity without ATIII
IC50 [9]: 45 nM
IC50 [10]: 460 nM

B6: 13C.444 (other)
chain: B1 chain with A385E, S387E, A388V, Q389A, G390P
modifications: N-linked glycans added by Drosophila S2 cells; not carried by the letters
notes: as for B3
rsd. IIa catG; CA expt #7; stg1 conc 200 [7]: 5 % of activity without ATIII
rsd. IIa hne; CA expt #7; stg1 conc 200 [7]: 14 % of activity without ATIII
rsd. IIa no add; CA expt #7; stg1 conc 200 [7]: 6 % of activity without ATIII
rsd. Xa catG; CA expt #7; stg1 conc 200 [8]: 3 % of activity without ATIII
rsd. Xa hne; CA expt #7; stg1 conc 200 [8]: 3 % of activity without ATIII
rsd. Xa no add; CA expt #7; stg1 conc 200 [8]: 3 % of activity without ATIII
IC50 [9]: 40 nM
IC50 [10]: > 1000 nM

B7: 13C.434 (other)
chain: B1 chain with A385E, S387E, A388F, Q389A
notes: as for B3
rsd. IIa catG; CA expt #7; stg1 conc 200 [7]: 5 % of activity without ATIII
rsd. IIa catG; CA expt #8; stg1 conc 200 [7]: 30 % of activity without ATIII
rsd. IIa hne; CA expt #7; stg1 conc 200 [7]: 4 % of activity without ATIII
rsd. IIa hne; CA expt #8; stg1 conc 200 [7]: 12 % of activity without ATIII
rsd. IIa no add; CA expt #7; stg1 conc 200 [7]: 5 % of activity without ATIII
rsd. IIa no add; CA expt #8; stg1 conc 200 [7]: 8 % of activity without ATIII
rsd. Xa catG; CA expt #7; stg1 conc 200 [8]: 2 % of activity without ATIII
rsd. Xa catG; CA expt #8; stg1 conc 200 [8]: 1 % of activity without ATIII
rsd. Xa hne; CA expt #7; stg1 conc 200 [8]: 3 % of activity without ATIII
rsd. Xa hne; CA expt #8; stg1 conc 200 [8]: 1 % of activity without ATIII
rsd. Xa no add; CA expt #7; stg1 conc 200 [8]: 4 % of activity without ATIII
rsd. Xa no add; CA expt #8; stg1 conc 200 [8]: 2 % of activity without ATIII
IC50 [9]: 17 nM
IC50 [10]: 500 nM
